Paper PMC10397247
Read-outs that look alike come from different tables or passages of the source.

T1: O16-bP
T1 chain: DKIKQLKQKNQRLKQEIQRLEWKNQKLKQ

T2: O14-bP
T2 chain: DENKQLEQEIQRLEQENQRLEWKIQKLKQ

T3: O3-bP
T3 chain: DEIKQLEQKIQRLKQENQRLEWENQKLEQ

T4: O5-bP
T4 chain: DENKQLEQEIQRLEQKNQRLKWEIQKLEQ

T5: O15-bP
T5 chain: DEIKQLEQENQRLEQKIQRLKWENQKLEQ

T6: O4-bP
T6 chain: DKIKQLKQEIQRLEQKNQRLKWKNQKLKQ

T7: O2-bP
T7 chain: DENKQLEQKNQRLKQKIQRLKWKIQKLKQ

T8: O8-bP
T8 chain: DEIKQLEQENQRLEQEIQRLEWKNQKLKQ

T9: O6-bP
T9 chain: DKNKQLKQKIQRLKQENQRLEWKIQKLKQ

T10: O12-bP
T10 chain: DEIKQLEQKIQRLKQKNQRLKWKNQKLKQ

T11: O13-bP
T11 chain: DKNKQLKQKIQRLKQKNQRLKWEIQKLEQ

T12: O10-bP
T12 chain: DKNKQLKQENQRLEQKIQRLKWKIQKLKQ

T13: O7-bP
T13 chain: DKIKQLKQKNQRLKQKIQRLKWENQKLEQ

T14: O11-bP
T14 chain: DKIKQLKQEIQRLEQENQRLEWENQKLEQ

T15: O9-bP
T15 chain: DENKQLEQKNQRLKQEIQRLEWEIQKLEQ

T16: O1-bP
T16 chain: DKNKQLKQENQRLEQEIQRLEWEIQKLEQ

T17: Core_NNNN-es_KEEE
T17 chain: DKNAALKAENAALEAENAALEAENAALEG

T18: 4H376-AA
T18 chain: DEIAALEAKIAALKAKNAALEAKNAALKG

T19: 4H963-AA
T19 chain: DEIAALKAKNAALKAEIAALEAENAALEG

T20: 4H2774-AA
T20 chain: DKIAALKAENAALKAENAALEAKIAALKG

T21: 4H2611-AA
T21 chain: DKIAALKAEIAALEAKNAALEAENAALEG

T22: 4H249-AA
T22 chain: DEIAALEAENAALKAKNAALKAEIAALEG

T23: 4H688-AA
T23 chain: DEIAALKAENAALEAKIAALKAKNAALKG

T24: 4H2504-AA
T24 chain: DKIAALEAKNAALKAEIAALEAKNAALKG

T25: 4H2219-AA
T25 chain: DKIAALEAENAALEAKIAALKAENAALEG

T26: 4H3381-AA
T26 chain: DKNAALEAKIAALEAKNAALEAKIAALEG

T27: 4H347-AA
T27 chain: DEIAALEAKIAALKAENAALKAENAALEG

T28: 4H3493-AA
T28 chain: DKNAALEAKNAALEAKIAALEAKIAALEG

T29: 4H3001-AA
T29 chain: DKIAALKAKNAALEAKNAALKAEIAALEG

T30: 4H3340-AA
T30 chain: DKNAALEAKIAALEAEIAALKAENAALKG

T31: 4H406-AA
T31 chain: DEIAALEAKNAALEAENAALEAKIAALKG

T32: 4H1738-AA
T32 chain: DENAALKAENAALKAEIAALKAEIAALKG

T33: 4H2592-AA
T33 chain: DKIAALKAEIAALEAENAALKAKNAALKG

T34: 4H1639-AA
T34 chain: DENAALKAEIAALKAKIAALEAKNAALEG


Tests used:
O16-bP = target: T1, O16-bP; assay: two-hybrid library CCNG1;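 note: natural log of median RNA to DNA barcode read ratio; higher means stronger binding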
O14-bP = target: T2, O14-bP; assay: two-hybrid library CCNG1;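 note: natural log of median RNA to DNA barcode read ratio; higher means stronger binding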
O3-bP = target: T3, O3-bP; assay: two-hybrid library CCNG1;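 note: natural log of median RNA to DNA barcode read ratio; higher means stronger binding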
O5-bP = target: T4, O5-bP; assay: two-hybrid library CCNG1;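 note: natural log of median RNA to DNA barcode read ratio; higher means stronger binding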
O15-bP = target: T5, O15-bP; assay: two-hybrid library CCNG1;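 note: natural log of median RNA to DNA barcode read ratio; higher means stronger binding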
O4-bP = target: T6, O4-bP; assay: two-hybrid library CCNG1;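 note: natural log of median RNA to DNA barcode read ratio; higher means stronger binding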
O2-bP = target: T7, O2-bP; assay: two-hybrid library CCNG1
O8-bP = target: T8, O8-bP; assay: two-hybrid library CCNG1
O6-bP = target: T9, O6-bP; assay: two-hybrid library CCNG1
O12-bP = target: T10, O12-bP; assay: two-hybrid library CCNG1
O13-bP = target: T11, O13-bP; assay: two-hybrid library CCNG1
O10-bP = target: T12, O10-bP; assay: two-hybrid library CCNG1
O7-bP = target: T13, O7-bP; assay: two-hybrid library CCNG1
O11-bP = target: T14, O11-bP; assay: two-hybrid library CCNG1
O9-bP = target: T15, O9-bP; assay: two-hybrid library CCNG1
O1-bP = target: T16, O1-bP; assay: two-hybrid library CCNG1
Core_NNNN-es_KEEE = target: T17, Core_NNNN-es_KEEE; assay: two-hybrid library CCmax; conditions: mean of both orientations
4H376-AA = target: T18, 4H376-AA; assay: two-hybrid library CCmax; conditions: mean of both orientations
4H963-AA = target: T19, 4H963-AA; assay: two-hybrid library CCmax; conditions: mean of both orientations
4H2774-AA = target: T20, 4H2774-AA; assay: two-hybrid library CCmax; conditions: mean of both orientations
4H2611-AA = target: T21, 4H2611-AA; assay: two-hybrid library CCmax; conditions: mean of both orientations
4H249-AA = target: T22, 4H249-AA; assay: two-hybrid library CCmax; conditions: mean of both orientations
4H688-AA = target: T23, 4H688-AA; assay: two-hybrid library CCmax
4H2504-AA = target: T24, 4H2504-AA; assay: two-hybrid library CCmax; conditions: mean of both orientations
4H2219-AA = target: T25, 4H2219-AA; assay: two-hybrid library CCmax; conditions: mean of both orientations
4H3381-AA = target: T26, 4H3381-AA; assay: two-hybrid library CCmax; conditions: mean of both orientations
4H347-AA = target: T27, 4H347-AA; assay: two-hybrid library CCmax; conditions: mean of both orientations
4H3493-AA = target: T28, 4H3493-AA; assay: two-hybrid library CCmax; conditions: mean of both orientations
4H3001-AA = target: T29, 4H3001-AA; assay: two-hybrid library CCmax; conditions: mean of both orientations
4H3340-AA = target: T30, 4H3340-AA; assay: two-hybrid library CCmax; conditions: mean of both orientations
4H406-AA = target: T31, 4H406-AA; assay: two-hybrid library CCmax; conditions: mean of both orientations
4H1738-AA = target: T32, 4H1738-AA; assay: two-hybrid library CCmax; conditions: mean of both orientations
4H2592-AA = target: T33, 4H2592-AA; assay: two-hybrid library CCmax; conditions: mean of both orientations
4H1639-AA = target: T34, 4H1639-AA; assay: two-hybrid library CCmax

Row | interaction score (O16-bP) | interaction score (O14-bP) | interaction score (O3-bP) | interaction score (O5-bP) | interaction score (O15-bP) | interaction score (O4-bP) | interaction score (O2-bP) | interaction score (O8-bP) | interaction score (O6-bP) | interaction score (O12-bP) | interaction score (O13-bP) | interaction score (O7-bP) | interaction score (O11-bP) | Binder | further results
1 | -0.76 | -0.56 | -0.676 | -0.843 | -0.788 | -0.826 | 0.624 | -1.81 | -1.19 | -1.28 | -0.892 | -1.18 | -1.97 | DKNKQLKQENQRLEQKIQRLKWKIQKLKQ [O10-bP] | interaction score (O10-bP; mean of both orientations): -0.552; interaction score (O9-bP; mean of both orientations): 0.966
2 | -0.714 | -1.51 | -1.35 | -1.22 | -1.88 | -1.05 | 1.06 | -1.95 | -0.442 | -1.11 | -0.754 | -1.06 | -0.513 | DKNKQLKQENQRLEQEIQRLEWEIQKLEQ [O1-bP] | interaction score (O10-bP): -0.164; interaction score (O1-bP): -0.355; interaction score (O9-bP): 1.31
3 | – | – | – | – | – | – | – | – | – | – | – | – | – | DENAALEAKNAALKAKNAALKAKNAALKG [Core_NNNN-es_EKKK] | interaction score (Core_NNNN-es_KEEE): 1.14
4 | – | – | – | – | – | – | – | – | – | – | – | – | – | DENAALKAEIAALKAKIAALEAKNAALEG [4H1639-AA] | interaction score (4H376-AA): -1.37; interaction score (4H963-AA): -2.16; interaction score (4H2774-AA): -1.35; interaction score (4H2611-AA): -1.52; interaction score (4H249-AA): -1.52; interaction score (4H688-AA): -1.18; interaction score (4H2504-AA): -1.77; interaction score (4H2219-AA): -1.88; interaction score (4H3381-AA): -1.7; interaction score (4H347-AA): -1.41; interaction score (4H3493-AA): -1.73; interaction score (4H3001-AA): -2.12; interaction score (4H3340-AA): -1.63; interaction score (4H406-AA): -1.63; interaction score (4H1738-AA): -1.64; interaction score (4H2592-AA): -1.85; interaction score (4H1639-AA): 1.24
